Key:
negative-staining EM = target: the molecule itself; assay: negative-staining EM
[1] = target: T1, L3MBTL3–SAM (residues 705–773) (UniProt Q96JM7 705-773); assay: SEC
T1 sequence (looked up): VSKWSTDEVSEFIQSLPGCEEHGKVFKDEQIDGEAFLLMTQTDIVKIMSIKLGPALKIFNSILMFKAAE

| Binder | binding result (negative-staining EM) | binding result [1] |
| --- | --- | --- |
| wild-type full-length SAMD1 (natural protein, human, UniProt Q6SPF0 1-538, looked up) MAGPPALPPPETAAAATTAAAASSSAASPHYQEWILDTIDSLRSRKARPDLERICRMVRRRHGPEPERTRAELEKLIQQRAVLRVSYKGSISYRNAARVQPPRRGATPPAPPRAPRGAPAAAAAAAPPPTPAPPPPPAPVAAAAPARAPRAAAAAATAPPSPGPAQPGPRAQRAAPLAAPPPAPAAPPAVAPPAGPRRAPPPAVAAREPPLPPPPQPPAPPQQQQPPPPQPQPPPEGGAVRAGGAARPVSLREVVRYLGGSGGAGGRLTRGRVQGLLEEEAAARGRLERTRLGALALPRGDRPGRAPPAASARPSRSKRGGEERVLEKEEEEDDDEDEDEEDDVSEGSEVPESDRPAGAQHHQLNGERGPQSAKERVKEWTPCGPHQGQDEGRGPAPGSGTRQVFSMAAMNKEGGTASVATGPDSPSPVPLPPGKPALPGADGTPFGCPPGRKEKPSDPVEWTVMDVVEYFTEAGFPEQATAFQEQEIDGKSLLLMQRTDVLTGLSIRLGPALKIYEHHIKVLQQGHFEDDDPDGFLG | binds |  |
| SAMD1–SAM (residues 459–523 with L495R mutation) (domain or fragment, human, UniProt Q6SPF0 459-523, looked up) PVEWTVMDVVEYFTEAGFPEQATAFQEQEIDGKSLLRMQRTDVLTGLSIRLGPALKIYEHHIKVL |  | binds |
